Experimental findings from patent US20170189507A1 are described below.

This assay addresses HLA-A*24 (human). Put plainly: UV-ligand exchange ELISA. In general terms: An ELISA detects its analyte on a solid surface through an enzyme-linked reagent.
With LFIPSSKLLFL [peptide SEQ ID No 171], the peptide exchange yield is 50 to 75%. To IYSWILDHF [peptide SEQ ID No 173] belongs greater than 75%; to YYLEVGKTLI [peptide SEQ ID No 211], greater than 75%. Turning to RYSTGLAGNLL [peptide SEQ ID No 221], the peptide exchange yield is 50 to 75%. The same measure for TYTQDFNKF [peptide SEQ ID No 208]: 50 to 75%; for VFKASKITF [peptide SEQ ID No 191]: 50 to 75%; for VHIPEVYLI [peptide SEQ ID No 205]: 50 to 75%.

The molecule VYPWLGALL [peptide SEQ ID No 177] yielded a peptide exchange yield greater than 75%.

The molecule IYTMIYRNL [peptide SEQ ID No 210] registered a peptide exchange yield greater than 75%.

RYISDQLFTNF [peptide SEQ ID No 278] yielded a peptide exchange yield greater than 75%. Molecule IYLVSIPEL [peptide SEQ ID No 161] came in with a peptide exchange yield greater than 75%. The same measure for RYPDNLKHLYL [peptide SEQ ID No 280]: greater than 75%. The same measure for IYQLDTASI [peptide SEQ ID No 182]: 50 to 75%; for KYQDILETI [peptide SEQ ID No 168]: greater than 75%. To VYTLDIPVL [peptide SEQ ID No 160] belongs greater than 75%; to FFPPTRQMGLLF [peptide SEQ ID No 217], greater than 75%.

TYIESASEL [peptide SEQ ID No 279] registered a peptide exchange yield of 50 to 75%. In the case of EFGSLHLEFL [peptide SEQ ID No 194], the peptide exchange yield is less than 20%. Molecule VYGFQWRHF [peptide SEQ ID No 276] displayed a peptide exchange yield greater than 75%. On to MYDSYWRQF [peptide SEQ ID No 179], for which the peptide exchange yield was greater than 75%. Molecule RYLNKAFHI [peptide SEQ ID No 284] displayed a peptide exchange yield of 50 to 75%. The same measure for AYTLIAPNI [peptide SEQ ID No 169]: 50 to 75%. Consider KFVDSTFYL [peptide SEQ ID No 282], for which the peptide exchange yield was greater than 75%. In turn, TYTTVPRVAF [peptide SEQ ID No 172] returned a peptide exchange yield greater than 75%. The same measure for KYIPYKYVI [peptide SEQ ID No 223]: 50 to 75%; for YYVYIMNHL [peptide SEQ ID No 225]: 50 to 75%.

VYEDQVGKF [peptide SEQ ID No 170] gave a peptide exchange yield of 20 to 49%. On to VFTRVSSFL [peptide SEQ ID No 162], for which the peptide exchange yield lay in the range of 50 to 75%. The same measure for EYQENFLSF [peptide SEQ ID No 206]: 50 to 75%; for RFHPTPLLL [peptide SEQ ID No 193]: greater than 75%. To LYNKGFIYL [peptide SEQ ID No 159] belongs greater than 75%; to EYPLVINTL [peptide SEQ ID No 219], 50 to 75%; to IYKVGAPTI [peptide SEQ ID No 185], 50 to 75%. To KFSSFSLFF [peptide SEQ ID No 164] belongs 50 to 75%; to SYALLTYMI [peptide SEQ ID No 192], greater than 75%.

QYLQDAYSF [peptide SEQ ID No 272]: the peptide exchange yield is greater than 75%. The molecule EYINQGDLHEF [peptide SEQ ID No 275] returned a peptide exchange yield of 50 to 75%. To GFFIFNERF [peptide SEQ ID No 190] belongs 50 to 75%; to RYPDNLKHL [peptide SEQ ID No 286], 20 to 49%. As for KYTSWYVAL [peptide SEQ ID No 228], the peptide exchange yield is greater than 75%. The same measure for VYVSDIQEL [peptide SEQ ID No 288]: 50 to 75%. Turning to DYTTWTALL [peptide SEQ ID No 165], the peptide exchange yield is greater than 75%. For YYVESGKLF [peptide SEQ ID No 166], the peptide exchange yield is greater than 75%. The same measure for AYLHSHALI [peptide SEQ ID No 274]: greater than 75%; for VFQNFPLLF [peptide SEQ ID No 184]: greater than 75%; for VYRDETGELF [peptide SEQ ID No 226]: 50 to 75%.

Turning to IYDDSFIRPVTF [peptide SEQ ID No 180], the peptide exchange yield fell in the range of 50 to 75%. The same measure for IFLDYEAGTLSF [peptide SEQ ID No 227]: greater than 75%.

As to LYLDIINLF [peptide SEQ ID No 181], the peptide exchange yield was greater than 75%. The same measure for LYLDKATLI [peptide SEQ ID No 198]: 50 to 75%. To YFDKVVTL [peptide SEQ ID No 215] belongs 20 to 49%; to WYVNGVNYF [peptide SEQ ID No 189], 20 to 49%; to IFIEVFSHF [peptide SEQ ID No 178], 50 to 75%. To TYLRDQHFL [peptide SEQ ID No 187] belongs greater than 75%; to TYIKPISKL [peptide SEQ ID No 273], 50 to 75%; to LYHDIFSRL [peptide SEQ ID No 271], greater than 75%. Molecule QYLENLEKL [peptide SEQ ID No 224] returned a peptide exchange yield of 50 to 75%. To KYPVEWAKF [peptide SEQ ID No 289] belongs greater than 75%; to RYFKGLVF [peptide SEQ ID No 188], 50 to 75%. To DYLKGLASF [peptide SEQ ID No 163] belongs greater than 75%. The same measure for NYINRILKL [peptide SEQ ID No 167]: greater than 75%; for QYSSVFKSL [peptide SEQ ID No 216]: greater than 75%. HYSQELSLLYL [peptide SEQ ID No 158] returned a peptide exchange yield greater than 75%. LYLKLWNLI [peptide SEQ ID No 214] displayed a peptide exchange yield of 50 to 75%. To TYGDAGLTYTF [peptide SEQ ID No 283] belongs 50 to 75%.

Turning to FYSRLLQKF [peptide SEQ ID No 203], the peptide exchange yield was 50 to 75%. To KYMVYPQTF [peptide SEQ ID No 267] belongs greater than 75%; to VFTSTARAF [peptide SEQ ID No 183], 50 to 75%; to IFPQFLYQF [peptide SEQ ID No 186], greater than 75%.
